# Patent US6387642
# Experiments:
# [1] = biological target: Cdc2-cyclin B1 complex containing the T14A mutant of Xenopus Cdc2
# [2] = biological target: Cdc2-cyclin B1 complex containing the T14A,Y15F double mutant of Xenopus Cdc2
# [3] = biological target: Cdc2-cyclin B1 complex containing the T161A mutant of Xenopus Cdc2
# [4] = biological target: Cdc2-cyclin B1 complex containing the Y15F mutant of Xenopus Cdc2
# [5] = biological target: Cdc2-cyclin B1 complex containing the triple mutant T14A,Y15F,N133A of Xenopus Cdc2
# [6] = biological target: Purified recombinant Cdc2-cyclin B1 complex containing wild-type Xenopus Cdc2
# [7] = biological target: monomeric Cdc2
# [8] = biological target: Cdc2-cyclin B1 complex containing the T14A mutant of Xenopus Cdc2 (Xenopus); assay: cell-based or functional assay
# [9] = biological target: Cdc2-cyclin B1 complex containing the Y15F mutant of Xenopus Cdc2 (Xenopus); assay: cell-based or functional assay
# [10] = biological target: Cdc2-cyclin B1 complex containing the catalytically inactive N133A mutant of Xenopus Cdc2 (Xenopus); assay: cell-based or functional assay
# [11] = biological target: Purified recombinant Cdc2-cyclin B1 complex containing wild-type Xenopus Cdc2 (Xenopus); assay: cell-based or functional assay
# [12] = biological target: Cdc2-cyclin B1 complex containing the catalytically inactive N133A mutant of Xenopus Cdc2
binder,measurement,setting,value
"Recombinant histidine-tagged Myt1 purified from baculovirus-infected Sf9 cells (enzyme, not shown: small tags and cut ends) MPVPGDDMGETPLTRTPIPMPAYFSQAEQSFSLKKRGRSLCYTLPPRPPVKSALPVSRIFPNKQRSWSQPRPQSVSFRSPQNKTPASKLYDQSKGDTFFKQCFKSICKLGRGSFGEVYKVQSLEDGCFYAVKRSVSPFRGESDRQRKLQEVRKHERVGEHPNCLRFVRAWEEKRMLYLQTELCAGSLQQHSEEFAGSLPPRRVWNITCDLLHGLKHLHDRNLLHLDIKPANVFISFSGVCKLGDFGLMVELDGTEGSGEAQEGDPRYMAPELLDGIFSKAADVFSLGMSLLEVACNMELPKGGDGWQQLRQGHLPTEFTSDLPPDFLKVLSAMLEPDYRRRATVDWLLSLPAIRNAERWRMVTLAQERTLGKIIAVYQFIVWLLSFVFQWLNRPVIGFLHYCGLRALPRSPPCSPFPNHLGESSFSSDWDDESLGDDVFEVPPSPLATHRNLTYHGQELIGRHSPDLLSRPSLGSTSTPRNLSPEFSMRKRSALPLTPNVSRISQDSTGKSRSPSTSHSSSGFVDAEVQRTLFLPRNLLGMFDDATEQ","phosphorylation of Cdc2 mutant, autoradiography",[1],Myt1 can phosphorylate both the TI4A (Thr^14 changed to Ala) and Y15F (Tyr^15 changed to Phe) mutants of Cdc2
same,reduction of Cdc2-associated histone H1 kinase activity,[1],"a large reduction in activity (60 and 50%, respectively)"
same,phosphorylation and H1 kinase activity,[2],"the T14A, Y15F double mutant of Cdc2 was neither phosphorylated nor inactivated by Myt1"
same,"phosphorylation of Cdc2 mutant, autoradiography",[2],"the T14A,Y15F double mutant was not a substrate for Myt1"
same,"phosphorylation of Cdc2 mutant, autoradiography",[3],Myt1 did not phosphorylate the T161A mutant of Cdc2 ( FIG. 2A ) on either tyrosine or threonine
same,"phosphorylation of Cdc2 mutant, autoradiography",[4],Myt1 can phosphorylate both the TI4A (Thr^14 changed to Ala) and Y15F (Tyr^15 changed to Phe) mutants of Cdc2
same,reduction of Cdc2-associated histone H1 kinase activity,[4],"a large reduction in activity (60 and 50%, respectively)"
same,"phosphorylation of Cdc2 mutant, autoradiography",[5],"the triple mutant T14A,Y15F, N133A was not a substrate for Myt1"
same,"phosphorylation of Cdc2, compared with single mutants",[6],wild-type Cdc2 appears to be phosphorylated more efficiently than either single mutant
same,"phosphorylation of Cdc2 in the presence of [γ-32P]ATP, autoradiography",[6],"Recombinant Myt1 efficiently phosphorylated cyclin-associated, wild-type Cdc2"
same,reduction of Cdc2-associated histone H1 kinase activity,[6],Treatment of wild-type Cdc2 with Myt1 caused a 90% reduction in its H1 kinase activity
same,phosphorylation of Cdc2 in the presence of [γ-32P]ATP,[7],Myt1 did not phosphorylate monomeric Cdc2
same,phosphoamino acid analysis: share of label in phosphotyrosine,[8],89%
same,phosphoamino acid analysis: share of 32P in phosphothreonine,[9],96%
same,phosphoamino acid analysis: phosphoserine,[10],< 0.7%
same,phosphoamino acid analysis: phosphothreonine,[10],75%
same,phosphoamino acid analysis: phosphotyrosine,[10],24%
same,phosphoamino acid analysis: share of 32P in phosphothreonine,[11],77%
same,phosphoamino acid analysis: share of 32P in phosphotyrosine,[11],20%
Endogenous Xenopus Myt1 from interphase egg extract (protein) MPVPGDDMGETPLTRTPIPMPAYFSQAEQSFSLKKRGRSLCYTLPPRPPVKSALPVSRIFPNKQRSWSQPRPQSVSFRSPQNKTPASKLYDQSKGDTFFKQCFKSICKLGRGSFGEVYKVQSLEDGCFYAVKRSVSPFRGESDRQRKLQEVRKHERVGEHPNCLRFVRAWEEKRMLYLQTELCAGSLQQHSEEFAGSLPPRRVWNITCDLLHGLKHLHDRNLLHLDIKPANVFISFSGVCKLGDFGLMVELDGTEGSGEAQEGDPRYMAPELLDGIFSKAADVFSLGMSLLEVACNMELPKGGDGWQQLRQGHLPTEFTSDLPPDFLKVLSAMLEPDYRRRATVDWLLSLPAIRNAERWRMVTLAQERTLGKIIAVYQFIVWLLSFVFQWLNRPVIGFLHYCGLRALPRSPPCSPFPNHLGESSFSSDWDDESLGDDVFEVPPSPLATHRNLTYHGQELIGRHSPDLLSRPSLGSTSTPRNLSPEFSMRKRSALPLTPNVSRISQDSTGKSRSPSTSHSSSGFVDAEVQRTLFLPRNLLGMFDDATEQ,phosphorylation of Cdc2 by immunoprecipitated Myt1,[6],The immunoprecipitated Myt1 protein efficiently phosphorylated Cdc2 in both assays
same,share of Cdc2 shifted to its Thr14-Tyr15 doubly phosphorylated form by the Myt1-depleted extract,[6],the Myt1-depleted extract phosphorylated shifted only about 20% of the substrate
same,share of Cdc2 shifted to its Thr14-Tyr15 doubly phosphorylated form by the control extract,[6],the control extract shifted ˜80% of the Cdc2 to its Thr^14-Tyr^15 doubly phosphorylated form
same,"tyrosine phosphorylation of Cdc2 in Myt1-depleted extract, anti-phosphotyrosine immunoblot",[6],The tyrosine phosphorylation of Cdc2 was dramatically reduced in the Myt1-depleted extract
M phase form of endogenous Xenopus Myt1 (from cytostatic factor-arrested egg extract) (protein) MPVPGDDMGETPLTRTPIPMPAYFSQAEQSFSLKKRGRSLCYTLPPRPPVKSALPVSRIFPNKQRSWSQPRPQSVSFRSPQNKTPASKLYDQSKGDTFFKQCFKSICKLGRGSFGEVYKVQSLEDGCFYAVKRSVSPFRGESDRQRKLQEVRKHERVGEHPNCLRFVRAWEEKRMLYLQTELCAGSLQQHSEEFAGSLPPRRVWNITCDLLHGLKHLHDRNLLHLDIKPANVFISFSGVCKLGDFGLMVELDGTEGSGEAQEGDPRYMAPELLDGIFSKAADVFSLGMSLLEVACNMELPKGGDGWQQLRQGHLPTEFTSDLPPDFLKVLSAMLEPDYRRRATVDWLLSLPAIRNAERWRMVTLAQERTLGKIIAVYQFIVWLLSFVFQWLNRPVIGFLHYCGLRALPRSPPCSPFPNHLGESSFSSDWDDESLGDDVFEVPPSPLATHRNLTYHGQELIGRHSPDLLSRPSLGSTSTPRNLSPEFSMRKRSALPLTPNVSRISQDSTGKSRSPSTSHSSSGFVDAEVQRTLFLPRNLLGMFDDATEQ,"Cdc2-specific kinase activity of immunoprecipitated Myt1, relative to the interphase form",[12],The M phase form was about one-fifth as active as the Myt1 protein from either type of interphase extract
